Reference: patent US20140213531A1

Target: Tryptase, from human lung (human) (UniProt Q15661)
Assay: enzyme inhibition, pNA substrate

Chain of Tryptase, from human lung (human) (Q15661 31-275 limits assumed): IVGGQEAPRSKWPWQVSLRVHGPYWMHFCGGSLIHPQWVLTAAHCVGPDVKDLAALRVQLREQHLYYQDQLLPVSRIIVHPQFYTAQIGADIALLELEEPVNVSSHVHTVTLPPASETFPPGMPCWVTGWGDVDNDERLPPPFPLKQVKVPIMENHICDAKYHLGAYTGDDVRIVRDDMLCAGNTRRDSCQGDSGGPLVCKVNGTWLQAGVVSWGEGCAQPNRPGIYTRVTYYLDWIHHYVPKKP

B1: Example 93 (peptide)
peptide: XCTASIPPQCS
HELM: PEPTIDE1{[Nle].C.T.A.S.I.P.P.Q.C.S.[dP].P}$PEPTIDE1,PEPTIDE1,2:R3-10:R3|PEPTIDE1,PEPTIDE1,1:R1-13:R2$$$V2.0
SMILES: CCCC[C@@H]1NC(=O)[C@@H]2CCCN2C(=O)[C@H]2CCCN2C(=O)[C@H](CO)NC(=O)[C@@H]2CSSC[C@H](NC1=O)C(=O)N[C@@H]([C@@H](C)O)C(=O)N[C@@H](C)C(=O)N[C@@H](CO)C(=O)N[C@@H]([C@@H](C)CC)C(=O)N1CCC[C@H]1C(=O)N1CCC[C@H]1C(=O)N[C@@H](CCC(N)=O)C(=O)N2
- % inhibition at 100 µM: 5.6%
